{"source": "patent US20210393776A1", "about": "(FABION PHARMACEUTICALS, published 2021)", "binders": {"B1": {"name": "anti EpCAM scFv fusion to the LC alone of OKT3 Fab (bispecific antibody)", "heavy": "not shown", "light": "QVQLQQSGGGLVQPGGSLRLSCAASGFTFSNYWMSWVRQAPGKGLEWVANIKQDGSEKFYVDSVKGRFTISRDNAKNSLYLQMNSLRAEDMAVYYCARVGGAWELGYWGQGTLVTVSAGGGGSGGGGSGGGGSGAQSVLTQPPSVSGAPGQRVTISCTGSSSNIGSYYGVHWYQQIPGTAPKLLIYSDTNRPSGVPDRFSGSKSGTSASLAITGLQAEDEADYYCQSYDSSLSGRVFGGGTKVTVLGRAQIVLTQSPAIMSASPGEKVTMTCSASSSVSYMNWYQQKSGTSPKRWIYDTSKLASGVPAHFRGSGSGTSYSLTISGMEAEDAATYYCQQWSSNPFTFGSGTKLEINRTVAAPSVFIFPPSDEQLKSGTASVVCLLNNFYPREAKVQWKVDNALQSGNSQESVTEQDSKDSTYSLSSTLTLSKADYEKHKVYACEVTHQGLSSPVTKSFNRGEC", "notes": "also called EpCAM1.1×OKT3 Fab fusion, LC only"}, "B2": {"name": "anti EpCAM scFv fusion to both HC and LC of OKT3 Fab (bispecific antibody)", "heavy": "not shown", "light": "B1 light", "notes": "also called EpCAM1.1×OKT3 Fab fusion, HC and LC"}}, "key": {"[1]": {"target": "T1, human CD3epsilonAA1-27.Fc (human)", "T1 construct": "also called recombinant human CD3epsilon N-terminal peptide (aa1-27.Fc fusion); CD3epsilon N-terminal amino acid 1-27 peptide Fc fusion", "assay": "ELISA, immobilised antigen, biotinylated protein, streptavidin-HRP, ABTS, OD405"}, "[2]": {"target": "T2, recombinant cyno CD3epsilon/delta Fc(K-H) heterodimer (cynomolgus)", "T2 construct": "also called cynomolgus CD3epsilon/delta; recombinant cyno CD3epsilon/delta heterodimeric Fc protein; copies: 1 + 1", "assay": "ELISA, immobilised antigen, biotinylated protein, streptavidin-HRP, ABTS, OD405"}, "[3]": {"target": "T3, human CD3 on cells (Jurkat cells; T cells in human PBMCs) (human, UniProt P07766 23-207)", "T3 construct": "whole, on cells; the other chains of the complex are present on the cells; also called CD3 on Jurkat cells; CD3 on T cells in PBMC preparation", "assay": "flow cytometry on Jurkat cells, biotinylated protein, streptavidin-PE"}, "[4]": {"target": "T4, full length human EpCAM on CHO cells (human, UniProt P16422 24-314)", "T4 construct": "CHO cells stably expressing full length human EpCAM; also called hu-EpCAM-FL; human EpCAM-FL", "T4 sequence": "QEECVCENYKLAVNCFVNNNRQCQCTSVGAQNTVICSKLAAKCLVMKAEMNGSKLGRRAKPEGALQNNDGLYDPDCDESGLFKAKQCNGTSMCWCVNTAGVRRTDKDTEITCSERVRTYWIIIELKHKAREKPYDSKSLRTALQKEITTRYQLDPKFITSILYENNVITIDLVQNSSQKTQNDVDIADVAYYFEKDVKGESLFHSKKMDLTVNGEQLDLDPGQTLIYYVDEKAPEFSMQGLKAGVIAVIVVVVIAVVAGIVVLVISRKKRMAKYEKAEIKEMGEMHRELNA", "assay": "flow cytometry on CHO cells stably expressing full length human EpCAM, PE detection"}}, "data": [{"binder": "B1", "values": [{"measurement": "binding result", "setting": "[1]", "result": "no binding (tested: about 80 nM (last point; axis to 100 nM))"}, {"measurement": "binding result", "setting": "[2]", "result": "no binding (tested: about 80 nM (last point; axis to 100 nM))"}, {"measurement": "binding result", "setting": "[3]", "result": "no binding"}, {"measurement": "binding result", "setting": "[4]", "result": "binds"}]}, {"binder": "B2", "values": [{"measurement": "binding result", "setting": "[1]", "result": "no binding (tested: about 80 nM (last point; axis to 100 nM))"}, {"measurement": "binding result", "setting": "[2]", "result": "no binding (tested: about 80 nM (last point; axis to 100 nM))"}, {"measurement": "binding result", "setting": "[3]", "result": "no binding"}, {"measurement": "binding result", "setting": "[4]", "result": "binds"}]}]}
